Assay results from US20100310640A1.

What was measured:
Assay in all cases: radiolabeled-peptide inhibition, purified HLA-DR
Conditions in all cases: remark: other sources report otherwise
[1] = target: T1, HLA-DR DRB1*0101 (human)
T1 chain 1: not shown
T1 chain 2: not shown

[2] = target: T2, HLA-DR DRB1*0404 (human)
T2 chain 1: not shown
T2 chain 2: not shown

[3] = target: T3, HLA-DR DRB4*0101 (human)
T3 chain 1: not shown
T3 chain 2: not shown

[4] = target: T4, HLA-DR DRB1*0401 (human)
T4 chain 1: not shown
T4 chain 2: not shown

[5] = target: HLA-DR DRB1*1501 (human)
[6] = target: T5, HLA-DR DRB1*0701 (human)
T5 chain 1: not shown
T5 chain 2: not shown

[7] = target: T6, HLA-DR DRB1*1101 (human)
T6 chain 1: not shown
T6 chain 2: not shown

SLTLQGLGISWLGLR [9019.0055]
IC50 [1]: 93 nM | IC50 [2]: 110 nM | IC50 [3]: 22 nM | IC50 [4]: 143 nM | IC50 [5]: 50 nM | IC50 [6]: 3100 nM | IC50 [7]: 6310 nM
